Experimental data reported in patent US12612465B2, “Formulations comprising PCSK9 specific monoclonal antibodies” (Amgen Inc., priority 2012, dated 2026).

What was measured:
PCSK9 [1] = molecular target: T1, PCSK9 (Homo sapiens, UniProt Q8NBP7); assay: Aggregate data of the studies of Examples 22-25; assay type: in vivo
T1 construct: endogenous in cells; host or cells: human subjects, in vivo

PCSK9 [2] = molecular target: T1, PCSK9; assay: Phase 1b ascending multiple dose study in hyperlipidemic subjects on a statin; assay type: in vivo
Procedure: The study had seven cohorts. […] Cohort 6 was conducted in hypercholesterolemic subjects on high doses of a statin (atorvastatin 80 mg or rosuvastatin 40 mg).

LDLR = LDLR levels in HepG2 and HepG2-PCSK9 cells with mevinolin (immunoblot); assay type: cell-based, human; details: 48 hours
Procedure: HepG2 cells were seeded in DMEM with 10% fetal bovine serum (FBS) and grown to ˜90% confluence. The cells were treated with indicated amounts of mevinolin (a statin, Sigma) and PCSK9 ABPs (FIGS. 12A-12C) in DMEM with 3% FBS for 48 hours. Total cell lysates were prepared. […] of total proteins were separated by gel electrophoresis and transferred to PVDF membrane. Immunoblots were performed using rabbit anti-human LDL receptor antibody (Fitzgerald) or rabbit anti-human b-actin antibody. The enhanced chemiluminescent results are shown in the top panels of FIGS. 12A-12C. The intensity of the bands were quantified by ImageJ software and normalized by b-actin. The relative levels of LDLR are shown in the lower panels of FIGS. 12A-12C.
HepG2-PCSK9 cells were also created. These were stable HepG2 cell line transfected with human PCSK9. The cells were seeded in DMEM with 10% fetal bovine serum (FBS) and grew to ˜90% confluence. The cells were treated with indicated amounts of mevinolin (Sigma) and PCSK9 ABPs (FIGS. 12D-12F) in DMEM with 3% FBS for 48 hours. Total cell lysates were prepared. […] of total proteins were separated by gel electrophoresis and transferred to PVDF membrane Immunoblots were performed using rabbit anti-human LDL receptor antibody (Fitzgerald) or rabbit anti-human b-actin antibody. […] The intensity of the bands were quantified by ImageJ software and normalized by b-actin.

PCSK9 [3] = molecular target: T1, PCSK9; assay: 12 week dose-ranging study in combination with statins (Example 25); assay type: in vivo; details: on statin, preliminary
Procedure: Randomization will be stratified by screening LDL-C level (<130 mg/dL [3.4 mmol/L] vs ≥130 mg/dL) and ezetimibe use at baseline (yes vs no). Randomization should occur within 5-10 days of the screening LDL-C evaluation used to determine eligibility. Study visits are every 2 weeks, irrespective whether the subject receives Q2W SC or Q4W treatment. […] The end-of-study visit and the last estimation of lipids is at week 12 for subjects on Q4W IP schedule and week 14 for subjects on Q2W IP schedule.
Males and females, ≥18 to ≤80 years of age, are eligible for this study. For enrollment,
subjects must be on a statin, with or without ezetimibe, with stable dose(s) for at least 4 weeks before LDL-C screening and not requiring uptitration. Fasting LDL-C at screening must be ≥85 mg/dL (2.2 mmol/L). Enrollment of subjects with screening fasting LDL-C between ≥85 mg/dL (2.2 mmol/L) and <100 mg/dL (2.6 mmol/L) will be limited to no more than approximately 20% of total planned enrollment. Fasting triglycerides must be ≤400 mg/dL (4.5 mmol/L) as determined by the central laboratory analysis at screening.

[4] = cohorts 1-5, end of dosing interval
[5] = 70 mg Q2W SC, end of dosing interval
[6] = 105 mg Q2W SC, end of dosing interval
[7] = 280 mg (Q2W as printed) SC, end of dosing interval
[8] = 350 mg (Q2W as printed) SC, end of dosing interval

T1 sequence (Q8NBP7 153-692): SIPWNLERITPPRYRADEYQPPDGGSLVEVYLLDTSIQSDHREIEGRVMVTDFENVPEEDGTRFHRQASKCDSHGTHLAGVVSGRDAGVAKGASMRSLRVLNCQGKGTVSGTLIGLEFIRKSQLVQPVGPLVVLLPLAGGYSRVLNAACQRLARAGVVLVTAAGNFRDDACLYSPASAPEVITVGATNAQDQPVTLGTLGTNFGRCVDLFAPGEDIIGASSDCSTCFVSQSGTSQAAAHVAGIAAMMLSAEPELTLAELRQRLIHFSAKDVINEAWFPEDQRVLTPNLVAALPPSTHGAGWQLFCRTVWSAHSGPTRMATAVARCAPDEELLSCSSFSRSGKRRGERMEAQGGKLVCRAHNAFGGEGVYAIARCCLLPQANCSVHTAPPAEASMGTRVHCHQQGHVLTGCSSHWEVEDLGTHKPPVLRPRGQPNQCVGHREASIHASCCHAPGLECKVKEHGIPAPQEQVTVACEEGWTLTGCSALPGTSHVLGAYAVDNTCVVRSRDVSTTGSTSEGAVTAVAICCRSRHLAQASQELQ

reduction from baseline in LDL-C at week 12 (PCSK9 [1]; 140 mg Q2W): ~60%
reduction from baseline in LDL-C at week 12 (PCSK9 [1]; 420 mg Q4W): ~56%
dose dependent reduction from baseline in ApoB (PCSK9 [1]; p values<0.001): 36-53%
dose dependent reduction from baseline in non-HDL-C (PCSK9 [1]; p values<0.001): 36-53%
dose dependent reduction from baseline in total cholesterol (PCSK9 [1]; p values<0.001): 25-37%
suppression of PCSK9 (PCSK9 [2]; cohort 3 (140 mg Q2W SC 3 times), preliminary): Near-complete suppression of PCSK9
maximum reduction in LDL-C versus placebo (PCSK9 [2]; cohort 6, high-dose statins): 73%
mean reduction in LDL-C vs placebo (PCSK9 [2]; cohort 6, high-dose statins, end of dosing interval after 3 biweekly doses): 63%
maximum LDL-C reduction versus placebo (PCSK9 [2]; cohort 7 heFH): 70%
maximum reduction of ApoB versus placebo (PCSK9 [2]; cohort 7 heFH): 57%
maximum reduction of non-HDL cholesterol versus placebo (PCSK9 [2]; cohort 7 heFH): 67%
maximum total cholesterol reduction versus placebo (PCSK9 [2]; cohort 7 heFH): 47%
mean reduction in LDL-C vs placebo (PCSK9 [2]; cohort 7 heFH, 140 mg SC Q2W 3 times, week 6): 65%
mean reduction in ApoB levels vs placebo (PCSK9 [2]; cohort 7 heFH, week 6): up to 47%
mean reduction in lipoprotein a (Lp(a)) vs placebo (PCSK9 [2]; cohort 7 heFH, week 6): 50%
mean reduction in non-HDL cholesterol vs placebo (PCSK9 [2]; cohort 7 heFH, week 6): 61%
mean reduction in serum PCSK9 values vs placebo (PCSK9 [2]; cohort 7 heFH, week 6): 78%
mean reduction in total cholesterol vs placebo (PCSK9 [2]; cohort 7 heFH, week 6): up to 42%
maximum ApoB reduction vs placebo (PCSK9 [2]; cohorts 1-5): up to 59%
mean LDL-C reduction vs placebo at maximal reduction (PCSK9 [2]; cohorts 1-5, low to moderate statin doses): up to 81%
mean ApoB reduction vs placebo (PCSK9 [2]; [4]): up to 54%
mean reduction of PCSK9 levels vs placebo (PCSK9 [2]; [4]): up to 94%
mean LDL-C reduction vs placebo at end of dosing interval (PCSK9 [2]; cohorts 1-5, week 6 after 3 biweekly SC doses): ≤ 75%
mean LDL-C reduction at end of dosing interval (PCSK9 [2]; cohorts 1-5, week 8 after 2 every 4 week SC doses): ≤ 66%
mean Lp(a) reduction vs placebo (PCSK9 [2]; cohorts 1-6, end of dosing interval): up to 43%
circulating PCSK9 after treatment (PCSK9 [2]; heFH subjects): undetectable
plasma PCSK9 (PCSK9 [2]; higher doses): undetectable
decrease in circulating LDL-C vs placebo (PCSK9 [2]; repeated SC doses over 6 weeks, low-to-moderate or high-dose statins): up to 81%
LDL-C nadir observed after initial dosing (PCSK9 [2]; subjects on stable moderate statin doses, preliminary): ≤ 2 weeks
LS mean percent increase from baseline in HDL-C (PCSK9 [3]; [5]): 21.17%
LS mean percent reduction from baseline in LDL-C (PCSK9 [3]; [5]): 39.22%
LS mean percent reduction from baseline in Lp(a) (PCSK9 [3]; [5]): 21.17%
LS mean percent reduction from baseline in VLDL-C (PCSK9 [3]; [5]): 14.84%
LS mean percent reduction from baseline in non-HDL-C (PCSK9 [3]; [5]): 36.20%
LS mean percent reduction from baseline in total cholesterol (PCSK9 [3]; [5]): 26.33%
LS mean percent reduction from baseline in triglycerides (PCSK9 [3]; [5]): 7.20%
LS mean percent increase from baseline in HDL-C (PCSK9 [3]; [6]): 6.80%
LS mean percent reduction from baseline in LDL-C (PCSK9 [3]; [6]): 56.38%
LS mean percent reduction from baseline in Lp(a) (PCSK9 [3]; [6]): 33.41%
LS mean percent reduction from baseline in VLDL-C (PCSK9 [3]; [6]): 12.75%
LS mean percent reduction from baseline in non-HDL-C (PCSK9 [3]; [6]): 51.20%
LS mean percent reduction from baseline in total cholesterol (PCSK9 [3]; [6]): 36.91%
LS mean percent reduction from baseline in triglycerides (PCSK9 [3]; [6]): 5.65%
LS mean percent increase from baseline in HDL-C (PCSK9 [3]; 140 mg Q2W SC): 8.43%
LS mean percent reduction from baseline in LDL-C (PCSK9 [3]; 140 mg Q2W SC): 68.76%
LS mean percent reduction from baseline in Lp(a) (PCSK9 [3]; 140 mg Q2W SC): 33.87%
LS mean percent reduction from baseline in VLDL-C (PCSK9 [3]; 140 mg Q2W SC): 45.14%
LS mean percent reduction from baseline in non-HDL-C (PCSK9 [3]; 140 mg Q2W SC): 64.61%
LS mean percent reduction from baseline in total cholesterol (PCSK9 [3]; 140 mg Q2W SC): 46.17%
LS mean percent reduction from baseline in triglycerides (PCSK9 [3]; 140 mg Q2W SC): 17.60%
LS mean percent increase from baseline in HDL-C (PCSK9 [3]; [7]): 2.17%
LS mean percent reduction from baseline in Lp(a) (PCSK9 [3]; [7]): 22.54%
LS mean percent reduction from baseline in VLDL-C (PCSK9 [3]; [7]): 18.12%
LS mean percent reduction from baseline in non-HDL-C (PCSK9 [3]; [7]): 38.89%
LS mean percent reduction from baseline in total cholesterol (PCSK9 [3]; [7]): 28.08%
LS mean percent reduction from baseline in triglycerides (PCSK9 [3]; [7]): 6.75%
LS mean percent reduction from baseline in LDL-C (PCSK9 [3]; 280 mg (Q4W) SC, end of dosing interval): 42.62%
LS mean percent increase from baseline in HDL-C (PCSK9 [3]; [8]): 6.92%
LS mean percent reduction from baseline in Lp(a) (PCSK9 [3]; [8]): 29.43%
LS mean percent reduction from baseline in VLDL-C (PCSK9 [3]; [8]): 20.89%
LS mean percent reduction from baseline in non-HDL-C (PCSK9 [3]; [8]): 50.83%
LS mean percent reduction from baseline in total cholesterol (PCSK9 [3]; [8]): 36.04%
LS mean percent reduction from baseline in triglycerides (PCSK9 [3]; [8]): 9.17%
LS mean percent reduction from baseline in LDL-C (PCSK9 [3]; 350 mg SC, end of dosing interval): 56.84%
LS mean percent increase from baseline in HDL-C (PCSK9 [3]; 420 mg (Q2W as printed) SC): 7.42%
LS mean percent reduction from baseline in Lp(a) (PCSK9 [3]; 420 mg (Q2W as printed) SC): 23.29%
LS mean percent reduction from baseline in VLDL-C (PCSK9 [3]; 420 mg (Q2W as printed) SC): 28.66%
LS mean percent reduction from baseline in non-HDL-C (PCSK9 [3]; 420 mg (Q2W as printed) SC): 48.54%
LS mean percent reduction from baseline in total cholesterol (PCSK9 [3]; 420 mg (Q2W as printed) SC): 42.76%
LS mean percent reduction from baseline in triglycerides (PCSK9 [3]; 420 mg (Q2W as printed) SC): 11.13%
LS mean percent reduction from baseline in LDL-C (PCSK9 [3]; 420 mg SC): 52.19%
B1: 21B12: human anti-PCSK9 monoclonal antibody, light/heavy variable region SEQ ID NO 23/49 (antibody, listed as Homo sapiens, V domains shown)
VH: QVQLVQSGAEVKKPGASVKVSCKASGYTLTSYGISWVRQAPGQGLEWMGWVSFYNGNTNYAQKLQGRGTMTTDPSTSTAYMELRSLRSDDTAVYYCARGYGMDVWGQGTTVTVSS
VL: QSALTQPASVSGSPGQSITISCTGTSSDVGGYNSVSWYQQHPGKAPKLMIYEVSNRPSGVSNRFSGSKSGNTASLTISGLQAEDEADYYCNSYTSTSMVFGGGTKLTVL
serious AEs (PCSK9 [2]; repeated SC doses over 6 weeks): no serious AEs
LDLR levels compared with the non-neutralizer 25A7.1 (LDLR): greater increase in LDLR levels
